Results: patent publication US20250064890A1, “PROTEIN COMPOSITIONS FOR THE TREATMENT OF INFLAMMATORY DISEASES” (Unichem Laboratories Limited, priority 2021, published 2025)
Like-named read-outs stand apart in the source and are kept apart here.

What was measured:
Assay type in all cases: cell-based, human
[1] = tested on: oral (buccal) mucosa cells (TR146)
Description: The protective effect of the recombinant lectin on survival of TR146 cells against 5-FU induced damage was determined using following calculations:
The viability of cells was determined as: % Cell viability=(100−% Cytotoxicity); • where, the percentage cytotoxicity corresponding to each treatment was calculated as: % Cytotoxicity=[(R−X)/R]*100, wherein X=Absorbance of cells treated with 5-FU or radiation damage/TI+5-FU, R=Absorbance of Control cells (Untreated) and Percentage protection was calculated as:
{(Absorbance of TI+5-FU or radiation)−(Absorbance of 5-FU or radiation alone)/(Absorbance of Untreated)−(Absorbance of 5-FU alone)}*100

[2] = tested on: oral (buccal) mucosa cells (TR146); experiment: Restoration of mitochondrial membrane potential (JC-1) against radiation induced damage; conditions: for MMP: red/green JC-1 fluorescence ratio
Description: (§1) Oral buccal mucosal cells (TR146) were incubated overnight in 5% CO2 incubator at 37° C. for 24 h. […] After 24 h of treatment, cells were exposed to damage (5-FU 5 mM) for 1.25 h for chemotherapy induced inflammation and exposed to gamma radiation (3.5 kGy) using Cobalt 60 for radiation induced inflammation. After the exposure, the anti-apoptotic effect of SEQ ID NO 2 was determined by restoration of mitochondrial membrane depolarization by JC-1 staining and reduction in apoptotic cell populations (Annexin positive and subG0/G1 cells in cell cycle analysis).
After incubation, the supernatants were discarded and 100 μl of JC1-dye solution (prepared by diluting 1 mM DMSO stock into 10 μM in 1×PBS) was added to each well. The cells were then incubated with the dye in CO2 incubator at 37° C. for 15 min, after which the supernatant was removed, and the cells were washed twice with 1×PBS. 100 μl of 1×PBS was finally added to each well. Red fluorescence (excitation 550 nm, emission 600 nm) and green fluorescence (excitation 485 nm, emission 535 nm) were measured using Biotek Synergy HT plate reader. The mitochondrial membrane potential (Δψm) was calculated as the ratio of intensity of red fluorescence to intensity of green fluorescence.
The percentage increase/restoration in mitochondrial membrane potential (MMP) was calculated as: % Increase=[(R−X)/R]*100 • Where, X=Δψm corresponding to TI+5-FU treated cells or TI+radiation treated cells; R=Δψm corresponding to control cells (FU damaged or Radiation damaged alone)

[3] = tested on: oral (buccal) mucosa cells (TR146); experiment: Annexin positive cell population against radiation damage; conditions: for % Apoptotic cells: Annexin positive
Description: as §1
To determine the reduction in apoptotic cell populations using annexin-v staining cells were gently harvested into pre-labeled sterile centrifuge tubes and centrifuged at 300×g for 5-7 min. Supernatant were discarded and the pellet was resuspended in 200 μl of fresh culture medium. 100 μl of cell suspension was transferred into pre-labeled sterile centrifuge tubes. 100 μl of Annexin-V reagent was added to each tube and incubated for 30 min at RT in dark. Cells stained for Annexin-V were then transferred into 96-well plates and acquired on flow cytometer (Guava technologies). Percentage of Annexin-V positive cells was calculated as follows:
={[% Annexin positive cells in 5-FU or radiation alone]−[% Annexin positive cells in (TI+5-FU) or (TI+radiation)]/% Annexin positive cells in 5-FU or radiation alone}*100

[4] = tested on: oral (buccal) mucosa cells (TR146); experiment: Sub(G0/G1) cell population (cell cycle) against radiation induced damage; conditions: for % Decrease in Apoptotic cells (with respect to control): Sub G0/G1
Description: To determine the effect of test item on cell cycle, oral buccal mucosal cells (TR146) were incubated overnight in 5% CO2 incubator at 37° C. for 24 h. […] After 24 h of treatment, cells were exposed to chemotherapy (5-FU 10 mM) for 24 h or radiotherapy (Gamma radiation (3.5 kGy) using Cobalt 60) for 2 h.
After incubation, cells were harvested by trypsinization and processed for Cell cycle assay. Accordingly, cells were harvested into prelabeled centrifuge tubes and centrifuged at 450 g for 5 min at room temperature (RT, low brake). The supernatants were removed carefully and discarded. 1 ml of 1× phosphate buffer saline (PBS) was added to the pellet and resuspended gently to make homogenous suspension. Cells were centrifuged at 450 g for 5 min, RT (low brake). The supernatant was carefully removed leaving behind approx. 100 μl of PBS. Cells were resuspended gently yet thoroughly in residual PBS. Ice-cold 70% ethanol (100 μl) was added drop-wise into cells in each tube while vortexing at low speed (fixation step). Cells stored at 4° C. for 24 h were centrifuged at 450 g for 5 min, RT (low brake). The supernatant was carefully removed without touching the pellet and discarded. 1 ml of 1×PBS was added into pellet and resuspended gently. Cells were incubated for 1 minute at RT. Cells were centrifuged at 450 g for 5 min, RT (low brake). The supernatant was removed carefully without touching the pellet, leaving behind approx. 20-50 μl of PBS. 200 μl of cell cycle reagent was added into each tube. Cells were resuspended gently and mixed. Cells were incubated for 30 min at RT in the dark. The stained samples were transferred into 96-well plates and acquired on flow cytometer (Guava technologies). Percentage of cells in Sub (G0/G1) phase were determined based on the concept that cell cycle reagent contains PI stain, which stains DNA of cells in different phases of cell cycle; Sub (G0/G1), G1, S, G2 and M. Cells in Sub (G0/G1) phase correspond to apoptotic cells. Percent inhibition in apoptotic cells is determined by the formula:
=[(% Sub(G0/G1) cells in 5-FU/radiation alone)−(% Sub(G0/G1) cells in TI+5-FU/radiation)/% Sub(G0/G1) cells in 5-FU/radiation alone]*100

[5] = 100 ng/ml + Radiation (3.5 kGy)
[6] = 200 ng/ml + Radiation (3.5 kGy)

B1: EGF: positive control (PC-1 in Tables 4, 6, 8) in the radiation damage tests (protein, UniProt P01133 23-1207, looked up)
Pro-epidermal growth factor: PQHWSCPEGTLAGNGNSTCVGPAPFLIFSHGNSIFRIDTEGTNYEQLVVDAGVSVIMDFHYNEKRIYWVDLERQLLQRVFLNGSRQERVCNIEKNVSGMAINWINEEVIWSNQQEGIITVTDMKGNNSHILLSALKYPANVAVDPVERFIFWSSEVAGSLYRADLDGVGVKALLETSEKITAVSLDVLDKRLFWIQYNREGSNSLICSCDYDGGSVHISKHPTQHNLFAMSLFGDRIFYSTWKMKTIWIANKHTGKDMVRINLHSSFVPLGELKVVHPLAQPKAEDDTWEPEQKLCKLRKGNCSSTVCGQDLQSHLCMCAEGYALSRDRKYCEDVNECAFWNHGCTLGCKNTPGSYYCTCPVGFVLLPDGKRCHQLVSCPRNVSECSHDCVLTSEGPLCFCPEGSVLERDGKTCSGCSSPDNGGCSQLCVPLSPVSWECDCFPGYDLQLDEKSCAASGPQPFLLFANSQDIRHMHFDGTDYGTLLSQQMGMVYALDHDPVENKIYFAHTALKWIERANMDGSQRERLIEEGVDVPEGLAVDWIGRRFYWTDRGKSLIGRSDLNGKRSKIITKENISQPRGIAVHPMAKRLFWTDTGINPRIESSSLQGLGRLVIASSDLIWPSGITIDFLTDKLYWCDAKQSVIEMANLDGSKRRRLTQNDVGHPFAVAVFEDYVWFSDWAMPSVMRVNKRTGKDRVRLQGSMLKPSSLVVVHPLAKPGADPCLYQNGGCEHICKKRLGTAWCSCREGFMKASDGKTCLALDGHQLLAGGEVDLKNQVTPLDILSKTRVSEDNITESQHMLVAEIMVSDQDDCAPVGCSMYARCISEGEDATCQCLKGFAGDGKLCSDIDECEMGVPVCPPASSKCINTEGGYVCRCSEGYQGDGIHCLDIDECQLGEHSCGENASCTNTEGGYTCMCAGRLSEPGLICPDSTPPPHLREDDHHYSVRNSDSECPLSHDGYCLHDGVCMYIEALDKYACNCVVGYIGERCQYRDLKWWELRHAGHGQQQKVIVVAVCVVVLVMLLLLSLWGAHYYRTQKLLSKNPKNPYEESSRDVRSRRPADTEDGMSSCPQPWFVVIKEHQDLKNGGQPVAGEDGQAADGSMQPTSWRQEPQLCGMGTEQGCWIPVSSDKGSCPQVMERSFHMPSYGTQTLEGGVEKPHSLLSANPLWQQRALDPPHQMELTQ
modifications: Pro-epidermal growth factor
% Protection ([1]; 10 ng/ml + Radiation (3.5 kGy)): 18% | % Protection ([1]; 50 ng/ml + Radiation (3.5 kGy)): 44.4% | % Protection [1, 5]: 46.5% | % Protection [1, 6]: 8.8% | % Increase in MMP (with respect to control) ([2]; 50 ng/ml + Radiation (3.5 kGy)): 41.8% | MMP ([2]; 50 ng/ml + Radiation (3.5 kGy)): 6.53 | % Increase in MMP (with respect to control) [2, 5]: 33.4% | MMP [2, 5]: 6.14 | % Increase in MMP (with respect to control) [2, 6]: 18.8% | MMP [2, 6]: 5.47 | % Decrease in Apoptotic cells (with respect to radiation control) ([3]; 50 ng/ml + Radiation (3.5 kGy)): 0% | % Apoptotic cells ([3]; 50 ng/ml + Radiation (3.5 kGy)): 13.7% | % Decrease in Apoptotic cells (with respect to radiation control) [3, 5]: 35.9% | % Apoptotic cells [3, 5]: 8.8% | % Decrease in Apoptotic cells (with respect to radiation control) [3, 6]: −1.5% | % Apoptotic cells [3, 6]: 13.9% | % Apoptotic cells (Sub G0/G1) ([4]; 50 ng/ml + Radiation (3.5 kGy)): 10.8% | % Decrease in Apoptotic cells (with respect to control) ([4]; 50 ng/ml + Radiation (3.5 kGy)): 69.5% | % Apoptotic cells (Sub G0/G1) [4, 5]: 16.4% | % Decrease in Apoptotic cells (with respect to control) [4, 5]: 53.5% | % Apoptotic cells (Sub G0/G1) [4, 6]: 30.5% | % Decrease in Apoptotic cells (with respect to control) [4, 6]: 13.7%
